Results as given in patent CN115785267A (SANYOU BIO INC, dated 2023).
Positions count from the first letter of the chain named.

T1: 人IL-23-His (human, UniProt Q9NPF7 20-189; P29460 23-328, limits assumed)
T1 sequence (looked up) 1: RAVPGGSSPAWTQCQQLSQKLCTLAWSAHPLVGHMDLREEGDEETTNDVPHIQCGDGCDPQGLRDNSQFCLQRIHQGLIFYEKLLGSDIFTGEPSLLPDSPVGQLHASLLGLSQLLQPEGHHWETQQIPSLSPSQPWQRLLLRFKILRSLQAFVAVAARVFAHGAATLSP
T1 sequence (looked up) 2: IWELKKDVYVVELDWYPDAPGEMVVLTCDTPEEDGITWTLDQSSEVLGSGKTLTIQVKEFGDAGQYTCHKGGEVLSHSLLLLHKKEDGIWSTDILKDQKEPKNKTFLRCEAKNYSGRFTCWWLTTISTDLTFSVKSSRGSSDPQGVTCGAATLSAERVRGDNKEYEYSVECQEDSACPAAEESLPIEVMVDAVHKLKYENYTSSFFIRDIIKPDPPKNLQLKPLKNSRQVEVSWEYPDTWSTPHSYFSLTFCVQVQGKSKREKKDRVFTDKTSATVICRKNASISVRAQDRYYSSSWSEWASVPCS

B1: 改造后抗体S5-5HWTL (antibody, V domains shown)
VH: QVQLVQSGAEVKKPGSSVKVSCKASGGTFSSYAISWVRQAPGQGLEWMGGIIPIFGTANYAQKFQGRVTITADESTSTAYMELSSLRSEDTAVYYCARDRFGLYYYYGMDVWGQGTMVTVSS
VL: QSVLTQPPSVSGAPGQRVTISCTGGSSSIGAGYDVQWYRQLPGIAPKLLIYRSTNRPSGVPARFSGSKSGASASLAITGLQAEDEADYYCVSYDSSLGGYVFGTGTKVTVL
B2: 改造后抗体S5-4H6L (antibody, V domains shown)
VH: B1 VH with G102S
VL: B1 VL with S26Q, S95A
B3: 改造后抗体S5-15HWTL (antibody, V domains shown)
VH: B1 VH with Q1K, I51F, F101T, G102S
VL: B1 VL

target: T1, 人IL-23-His; experiment: cell-based or functional assay

Row | 抑制IL-23激活小鼠脾细胞分泌IL-17: 剂量浓度 at which the inhibition is better than that of Guselkumab | Binder
1 | 0.063 µg/mL | B1
2 | 0.056 µg/mL | B2
3 | 0.167 µg/mL | B3

target: T1, 人IL-23-His; experiment: Biacore (SPR), human IL-23-His

Row | Kd | koff | kon | Binder
4 | 0.0625 nM | 6.97e-06 s⁻¹ | 111000 M⁻¹ s⁻¹ | B1
5 | 0.0589 nM | 6.03e-06 s⁻¹ | 102000 M⁻¹ s⁻¹ | B2
6 | 0.108 nM | 1.18e-05 s⁻¹ | 109000 M⁻¹ s⁻¹ | B3
